In patent publication US20240368301A1 (HANGZHOU JIUYUAN GENE ENGINEERING, published 2024):

Key:
[1] = target: T1, SIRPα-V1 on 293T-SIRPα-V1 cells (human, UniProt P78324 31-504); test: competition FACS: 293T-SIRPα-V1 cells, antibody titrated against CD47-FITC, % of blocking (panel SIRPα-V1-CD47)
T1 construct: Stably transfected cell line
Procedure: After washing, cells were analyzed by utilizing FlowJo V10 and GraphPad Prism6 software.

[2] = target: T2, SIRPα V1-his (ACRO, Cat #SIA-H5225) (human, UniProt P78324 31-370); test: competition ELISA: coated SIRPα-V1-his, antibody titrated against biotin-CD47, streptavidin-HRP (panel SIRPα-V1-CD47)
T2 construct: not shown: His tag
Procedure: 100 μL of 1 μg/mL of recombinant SIRPα-V1-his and SIRPα-V2-his were coated overnight at 4° C. in Maxisorp ELISA 96-well plates. […] After washing, each well was added with 0.2 μg Streptavidin-HRP, substrate TMB, and read by an enzyme marker.

[3] = target: T1, SIRPα-V1 on 293T-SIRPα-V1 cells; test: FACS titration on 293T-SIRPα-V1 cells, goat anti-hIgG-AF488 (panel SIRPα-V1)
Procedure: After washing, cells were stained by 0.2 μg of goat anti-hIgG-AF488 at 4° C. for 30 min, resuspended in […] of DPBS/1% FBS, and analyzed by FlowJo V10 and GraphPad Prism6 software.

[4] = target: T2, SIRPα V1-his (ACRO, Cat #SIA-H5225); test: BLI (ForteBio Octet RED 96): SIRPα V1-his on Ni-NTA biosensor, antibody in a 1:2 series of 7 concentrations (row SIRPα-V1)
Procedure: 5 μg/mL SIRPα V1-his and SIRPα V2-his was loaded to a Ni-NTA biosensor for 600 s, respectively. […] The binding time was 200 s and the dissociation time was 600 s. The data were fitted to calculate the affinity.

[5] = target: T2, SIRPα V1-his (ACRO, Cat #SIA-H5225); test: ELISA: coated SIRPα-V1-his, antibody titrated, goat anti-hIgG Fc HRP (panel SIRPα-V1)
Procedure: 100 μL of 1 μg/mL of SIRPα-V1-his, SIRPα-V2-his and SIRPα-V8-his (Sino Biological, Cat #30015-H08H) were coated overnight at 4° C. in Maxisorp ELISA 96-well plates. […] After washing, 100 μL of 1:5000 dilution of goat Anti-hIgG Fc HRP (Invitrogen, Cat #A18823) was added to each well and incubated for 1 h. TMB substrate was used for color development and enzyme marker readings.

[6] = target: T2, SIRPα V1-his (ACRO, Cat #SIA-H5225); test: SPR (Biacore), antibody captured by anti-Fc on CM5, 50 nM SIRPα V1-his injected, 1:1 model
Procedure: Using the Biacore analysis system, activators were prepared by mixing 400 mM EDC and 100 mM NHS and activated with a CM5 sensor chip at a flow rate of 10 μL/min for 420 s. Anti-Fc antibody at 30 μg/mL dissolved in 10 mM NaAc (pH 4.5) was injected into the channel at a flow rate of 10 μL/min and then closed with 1 M ethanolamine-HCl at a flow rate of 10 μL/min for 420 s. […] All experimental data were fitted using a 1:1 binding model.

T2 sequence (P78324 31-370 limits assumed): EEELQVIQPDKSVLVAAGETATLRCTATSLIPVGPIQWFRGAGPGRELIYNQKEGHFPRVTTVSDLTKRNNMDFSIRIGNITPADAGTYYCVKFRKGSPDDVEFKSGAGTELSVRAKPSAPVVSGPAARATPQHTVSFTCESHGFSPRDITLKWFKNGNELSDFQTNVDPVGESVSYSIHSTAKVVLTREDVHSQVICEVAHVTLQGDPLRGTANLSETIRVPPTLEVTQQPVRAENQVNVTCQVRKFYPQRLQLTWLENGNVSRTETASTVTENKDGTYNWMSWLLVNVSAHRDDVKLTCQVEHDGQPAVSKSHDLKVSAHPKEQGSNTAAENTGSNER
T1 sequence (P78324 31-504): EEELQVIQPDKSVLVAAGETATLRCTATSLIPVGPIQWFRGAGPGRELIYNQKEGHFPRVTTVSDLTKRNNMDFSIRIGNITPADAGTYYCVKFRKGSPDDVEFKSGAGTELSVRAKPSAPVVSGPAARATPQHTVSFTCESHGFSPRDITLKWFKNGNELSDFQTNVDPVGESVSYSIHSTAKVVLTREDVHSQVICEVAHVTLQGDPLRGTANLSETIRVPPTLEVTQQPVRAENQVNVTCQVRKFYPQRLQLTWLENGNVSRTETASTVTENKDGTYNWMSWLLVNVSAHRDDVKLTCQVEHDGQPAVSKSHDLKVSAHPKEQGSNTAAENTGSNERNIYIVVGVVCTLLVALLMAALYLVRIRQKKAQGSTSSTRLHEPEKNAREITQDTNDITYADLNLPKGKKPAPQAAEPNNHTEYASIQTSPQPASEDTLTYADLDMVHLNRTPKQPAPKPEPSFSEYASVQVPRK

Binder	IC50 (read off the curve) [1] [nM]	IC50 (read off the curve) [2] [nM]	EC50 (read off the curve) [3] [nM]	Kd [4] [nM]	koff [4] [s⁻¹]	EC50 (read off the curve) [5] [nM]	Kd [6] [nM]	koff [6] [s⁻¹]	kon [6] [M⁻¹ s⁻¹]
BI 765063 (antibody, V domains shown) VH: EVQLVQSGAEVKKPGESLRISCKASGYSFTSYWVHWVRQMPGKGLEWMGNIDPSDSDTHYSPSFQGHVTLSVDKSISTAYLQLSSLKASDTAMYYCVRGGTGTLAYFAYWGQGTLVTVSS VL: DVVMTQSPLSLPVTLGQPASISCRSSQSLVHSYGNTYLYWFQQRPGQSPRLLIYRVSNRFSGVPDRFSGSGSGTDFTLKISRVEAEDVGVYYCFQGTHVPYTFGGGTKVEIKR	~0.3	~4	~1	< 0.001	< 1e-07	~0.05			
Z6 (antibody, IgG1, V domains shown, also called humanized variant Z6) VH: QVQLQESGPGLVKPSQTLSLTCTVSGFSLTGYGVNWIRQPPGKGLEWIGIIWGDGSTDYNSALKSRVTISKDTSKNQVFLKLSSVTAADTAVYYCARAGKMDYWGQGTTVTVSS VL: DIVLTQSPASLAVSPGQRATITCRASESVDSYGNSFMHWYQQKPGQPPKPLIYLASNLESGVPARFSGSGSRTDFTLTINPVEANDAANYYCQQNNEYPWTFGGGTKVEIK							2.34	0.00165	708000
Z8 (antibody, IgG1, V domains shown, also called humanized variant Z8) VH: QVQLQESGPGLVKPSQTLSLTCTVSGFSLTGYGVNWIRQPPGKGLEWIGIIWGDGSTDYNSALKSRVTISKDTSKNQVFLKLSSVTADDTARYYCARAGKMDYWGQGTTVTVSS VL: DIVLTQSPASLAVSPGQRATITCRASESVDSYGNSFMHWYQQKPGQPPKLLIYLASNLESGVPARFSGSGSRTDFTLTINPVEANDAANYYCQQNNEYPWTFGGGTKVEIK							25.3	0.0194	768000
Z3 (antibody, IgG1, V domains shown, also called humanized variant Z3) VH: QVQLQESGPGLVKPSQTLSLTCTVSGFSLTGYGVNWIRQPPGKGLEWIGIIWGDGSTDYNSALKSRVTISVDTSKNQVFLKLSSVTAADTAVYYCARAGKMDYWGQGTTVTVSS VL: DIVLTQSPASLAVSPGQRATITCRASESVDSYGNSFMHWYQQKPGQPPKPLIYLASNLESGVPARFSGSGSRTDFTLTINPVEANDAANYYCQQNNEYPWTFGGGTKVEIK							4.17	0.00292	699000
Z5 (antibody, IgG1, V domains shown, also called humanized variant Z5) VH: QVQLQESGPGLVKPSQTLSLTCTVSGFSLTGYGVNWIRQPPGKGLEWIGIIWGDGSTDYNSALKSRVTISKDTSKNQVFLKLSSVTAADTAVYYCARAGKMDYWGQGTTVTVSS VL: DIVLTQSPASLAVSPGQRATITCRASESVDSYGNSFMHWYQQKPGQPPKLLIYLASNLESGVPARFSGSGSRTDFTLTINPVEANDAANYYCQQNNEYPWTFGGGTKVEIK							27.8	0.0208	747000

More lines, now with the values ahead:

IC50 (read off the curve) [1] [nM]	IC50 (read off the curve) [2] [nM]	EC50 (read off the curve) [3] [nM]	Kd [4] [nM]	koff [4] [s⁻¹]	EC50 (read off the curve) [5] [nM]	Kd [6] [nM]	koff [6] [s⁻¹]	kon [6] [M⁻¹ s⁻¹]	Binder
						1.98	0.00154	775000	Z4 (antibody, IgG1, V domains shown, also called humanized variant Z4) VH: QVQLQESGPGLVKPSQTLSLTCTVSGFSLTGYGVNWIRQPPGKGLEWIGIIWGDGSTDYNSALKSRVTISKDTSKNQVFLKLSSVTAADTAVYYCARAGKMDYWGQGTTVTVSS VL: DIVLTQSPASLAVSPGQRATITCRASESVDSYGNSFMHWYQQKPGQPPKPLIYLASNLESGVPARFSGSGSGTDFTLTINPVEANDAANYYCQQNNEYPWTFGGGTKVEIK
						2.01	0.00151	754000	Z7 (antibody, IgG1, V domains shown, also called humanized variant Z7) VH: QVQLQESGPGLVKPSQTLSLTCTVSGFSLTGYGVNWIRQPPGKGLEWIGIIWGDGSTDYNSALKSRVTISKDTSKNQVFLKLSSVTADDTARYYCARAGKMDYWGQGTTVTVSS VL: DIVLTQSPASLAVSPGQRATITCRASESVDSYGNSFMHWYQQKPGQPPKPLIYLASNLESGVPARFSGSGSGTDFTLTINPVEANDAANYYCQQNNEYPWTFGGGTKVEIK
						3.61	0.00269	744000	Z1 (antibody, IgG1, V domains shown, also called humanized variant Z1) VH: QVQLQESGPGLVKPSQTLSLTCTVSGFSLTGYGVNWIRQPPGKGLEWIGIIWGDGSTDYNSALKSRVTISVDTSKNQVFLKLSSVTAADTAVYYCARAGKMDYWGQGTTVTVSS VL: DIVLTQSPASLAVSPGQRATITCRASESVDSYGNSFMHWYQQKPGQPPKPLIYLASNLESGVPARFSGSGSGTDFTLTINPVEANDAANYYCQQNNEYPWTFGGGTKVEIK
						2.27	0.0016	708000	Z9 (antibody, IgG1, V domains shown, also called humanized variant Z9) VH: QVQLQESGPGLVKPSQTLSLTCTVSGFSLTGYGVNWIRQPPGKGLEWIGIIWGDGSTDYNSALKSRVTISKDTSKNQVFLKLSSVTADDTARYYCARAGKMDYWGQGTTVTVSS VL: DIVLTQSPASLAVSPGQRATITCRASESVDSYGNSFMHWYQQKPGQPPKPLIYLASNLESGVPARFSGSGSRTDFTLTINPVEANDAANYYCQQNNEYPWTFGGGTKVEIK
